Measured values as given in paper PMC12416549 (2024).

T1: TNFR1 (Homo sapiens, UniProt P19438)
T1 chain: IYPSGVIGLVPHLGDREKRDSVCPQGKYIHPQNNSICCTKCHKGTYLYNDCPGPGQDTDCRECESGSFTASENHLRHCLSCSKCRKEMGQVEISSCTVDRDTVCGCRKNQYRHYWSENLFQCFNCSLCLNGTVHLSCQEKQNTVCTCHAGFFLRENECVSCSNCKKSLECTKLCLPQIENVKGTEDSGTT


Target: T1, TNFR1
Test: yeast display SC50

Binder	apparent Kd (screen) [nM]
Y13V (designed binder) SMEEEVEKAAKEVEKKKKEAIEKHLEKLKAKDKEAAERFLKELEEAAKEYAKDEAKTMSEEEAKRRAKKYKEKVLLSELSEEEQKEIKEAEEKLVRTILKYVEEAAK	8.56
K48G (designed binder) SMEEEVEKAAKEYEKKKKEAIEKHLEKLKAKDKEAAERFLKELEEAAGEYAKDEAKTMSEEEAKRRAKKYKEKVLLSELSEEEQKEIKEAEEKLVRTILKYVEEAAK	0.49
A36Q (designed binder) SMEEEVEKAAKEYEKKKKEAIEKHLEKLKAKDKEAQERFLKELEEAAKEYAKDEAKTMSEEEAKRRAKKYKEKVLLSELSEEEQKEIKEAEEKLVRTILKYVEEAAK	0.653
L40G (designed binder) SMEEEVEKAAKEYEKKKKEAIEKHLEKLKAKDKEAAERFGKELEEAAKEYAKDEAKTMSEEEAKRRAKKYKEKVLLSELSEEEQKEIKEAEEKLVRTILKYVEEAAK	0.446
L40H (designed binder) SMEEEVEKAAKEYEKKKKEAIEKHLEKLKAKDKEAAERFHKELEEAAKEYAKDEAKTMSEEEAKRRAKKYKEKVLLSELSEEEQKEIKEAEEKLVRTILKYVEEAAK	0.49
E91D (designed binder) SMEEEVEKAAKEYEKKKKEAIEKHLEKLKAKDKEAAERFLKELEEAAKEYAKDEAKTMSEEEAKRRAKKYKEKVLLSELSEEEQKEIKEADEKLVRTILKYVEEAAK	0.446
E81A (designed binder) SMEEEVEKAAKEYEKKKKEAIEKHLEKLKAKDKEAAERFLKELEEAAKEYAKDEAKTMSEEEAKRRAKKYKEKVLLSELSAEEQKEIKEAEEKLVRTILKYVEEAAK	0.718
I98D (designed binder) SMEEEVEKAAKEYEKKKKEAIEKHLEKLKAKDKEAAERFLKELEEAAKEYAKDEAKTMSEEEAKRRAKKYKEKVLLSELSEEEQKEIKEAEEKLVRTDLKYVEEAAK	1.86
R38T (designed binder) SMEEEVEKAAKEYEKKKKEAIEKHLEKLKAKDKEAAETFLKELEEAAKEYAKDEAKTMSEEEAKRRAKKYKEKVLLSELSEEEQKEIKEAEEKLVRTILKYVEEAAK	2.05
A106V (designed binder) SMEEEVEKAAKEYEKKKKEAIEKHLEKLKAKDKEAAERFLKELEEAAKEYAKDEAKTMSEEEAKRRAKKYKEKVLLSELSEEEQKEIKEAEEKLVRTILKYVEEAVK	2.73
K17R (designed binder) SMEEEVEKAAKEYEKKRKEAIEKHLEKLKAKDKEAAERFLKELEEAAKEYAKDEAKTMSEEEAKRRAKKYKEKVLLSELSEEEQKEIKEAEEKLVRTILKYVEEAAK	0.653
Y70V (designed binder) SMEEEVEKAAKEYEKKKKEAIEKHLEKLKAKDKEAAERFLKELEEAAKEYAKDEAKTMSEEEAKRRAKKVKEKVLLSELSEEEQKEIKEAEEKLVRTILKYVEEAAK	22.2
E60P (designed binder) SMEEEVEKAAKEYEKKKKEAIEKHLEKLKAKDKEAAERFLKELEEAAKEYAKDEAKTMSPEEAKRRAKKYKEKVLLSELSEEEQKEIKEAEEKLVRTILKYVEEAAK	2.05
A90M (designed binder) SMEEEVEKAAKEYEKKKKEAIEKHLEKLKAKDKEAAERFLKELEEAAKEYAKDEAKTMSEEEAKRRAKKYKEKVLLSELSEEEQKEIKEMEEKLVRTILKYVEEAAK	0.446
E22F (designed binder) SMEEEVEKAAKEYEKKKKEAIFKHLEKLKAKDKEAAERFLKELEEAAKEYAKDEAKTMSEEEAKRRAKKYKEKVLLSELSEEEQKEIKEAEEKLVRTILKYVEEAAK	0.593
E72F (designed binder) SMEEEVEKAAKEYEKKKKEAIEKHLEKLKAKDKEAAERFLKELEEAAKEYAKDEAKTMSEEEAKRRAKKYKFKVLLSELSEEEQKEIKEAEEKLVRTILKYVEEAAK	0.446
A105W (designed binder) SMEEEVEKAAKEYEKKKKEAIEKHLEKLKAKDKEAAERFLKELEEAAKEYAKDEAKTMSEEEAKRRAKKYKEKVLLSELSEEEQKEIKEAEEKLVRTILKYVEEWAK	13.8
K18T (designed binder) SMEEEVEKAAKEYEKKKTEAIEKHLEKLKAKDKEAAERFLKELEEAAKEYAKDEAKTMSEEEAKRRAKKYKEKVLLSELSEEEQKEIKEAEEKLVRTILKYVEEAAK	1.16

Binder	apparent Kd (screen) [nM]
Y101C (designed binder) SMEEEVEKAAKEYEKKKKEAIEKHLEKLKAKDKEAAERFLKELEEAAKEYAKDEAKTMSEEEAKRRAKKYKEKVLLSELSEEEQKEIKEAEEKLVRTILKCVEEAAK	0.446
A90E (designed binder) SMEEEVEKAAKEYEKKKKEAIEKHLEKLKAKDKEAAERFLKELEEAAKEYAKDEAKTMSEEEAKRRAKKYKEKVLLSELSEEEQKEIKEEEEKLVRTILKYVEEAAK	0.49
K41D (designed binder) SMEEEVEKAAKEYEKKKKEAIEKHLEKLKAKDKEAAERFLDELEEAAKEYAKDEAKTMSEEEAKRRAKKYKEKVLLSELSEEEQKEIKEAEEKLVRTILKYVEEAAK	0.539
L75F (designed binder) SMEEEVEKAAKEYEKKKKEAIEKHLEKLKAKDKEAAERFLKELEEAAKEYAKDEAKTMSEEEAKRRAKKYKEKVFLSELSEEEQKEIKEAEEKLVRTILKYVEEAAK	0.869
E60H (designed binder) SMEEEVEKAAKEYEKKKKEAIEKHLEKLKAKDKEAAERFLKELEEAAKEYAKDEAKTMSHEEAKRRAKKYKEKVLLSELSEEEQKEIKEAEEKLVRTILKYVEEAAK	0.593
E54V (designed binder) SMEEEVEKAAKEYEKKKKEAIEKHLEKLKAKDKEAAERFLKELEEAAKEYAKDVAKTMSEEEAKRRAKKYKEKVLLSELSEEEQKEIKEAEEKLVRTILKYVEEAAK	20.2
E91T (designed binder) SMEEEVEKAAKEYEKKKKEAIEKHLEKLKAKDKEAAERFLKELEEAAKEYAKDEAKTMSEEEAKRRAKKYKEKVLLSELSEEEQKEIKEATEKLVRTILKYVEEAAK	7.07
D32P (designed binder) SMEEEVEKAAKEYEKKKKEAIEKHLEKLKAKPKEAAERFLKELEEAAKEYAKDEAKTMSEEEAKRRAKKYKEKVLLSELSEEEQKEIKEAEEKLVRTILKYVEEAAK	8.56
K16L (designed binder) SMEEEVEKAAKEYEKLKKEAIEKHLEKLKAKDKEAAERFLKELEEAAKEYAKDEAKTMSEEEAKRRAKKYKEKVLLSELSEEEQKEIKEAEEKLVRTILKYVEEAAK	0.446
E103Q (designed binder) SMEEEVEKAAKEYEKKKKEAIEKHLEKLKAKDKEAAERFLKELEEAAKEYAKDEAKTMSEEEAKRRAKKYKEKVLLSELSEEEQKEIKEAEEKLVRTILKYVQEAAK	0.49
A46Q (designed binder) SMEEEVEKAAKEYEKKKKEAIEKHLEKLKAKDKEAAERFLKELEEQAKEYAKDEAKTMSEEEAKRRAKKYKEKVLLSELSEEEQKEIKEAEEKLVRTILKYVEEAAK	0.539
K73R (designed binder) SMEEEVEKAAKEYEKKKKEAIEKHLEKLKAKDKEAAERFLKELEEAAKEYAKDEAKTMSEEEAKRRAKKYKERVLLSELSEEEQKEIKEAEEKLVRTILKYVEEAAK	9.41
Q84M (designed binder) SMEEEVEKAAKEYEKKKKEAIEKHLEKLKAKDKEAAERFLKELEEAAKEYAKDEAKTMSEEEAKRRAKKYKEKVLLSELSEEEMKEIKEAEEKLVRTILKYVEEAAK	5.84
E19Q (designed binder) SMEEEVEKAAKEYEKKKKQAIEKHLEKLKAKDKEAAERFLKELEEAAKEYAKDEAKTMSEEEAKRRAKKYKEKVLLSELSEEEQKEIKEAEEKLVRTILKYVEEAAK	0.49
A35H (designed binder) SMEEEVEKAAKEYEKKKKEAIEKHLEKLKAKDKEHAERFLKELEEAAKEYAKDEAKTMSEEEAKRRAKKYKEKVLLSELSEEEQKEIKEAEEKLVRTILKYVEEAAK	1.05
E62V (designed binder) SMEEEVEKAAKEYEKKKKEAIEKHLEKLKAKDKEAAERFLKELEEAAKEYAKDEAKTMSEEVAKRRAKKYKEKVLLSELSEEEQKEIKEAEEKLVRTILKYVEEAAK	2.73
E12A (designed binder) SMEEEVEKAAKAYEKKKKEAIEKHLEKLKAKDKEAAERFLKELEEAAKEYAKDEAKTMSEEEAKRRAKKYKEKVLLSELSEEEQKEIKEAEEKLVRTILKYVEEAAK	0.446
